Results as given in publication PMC9604365 (2022).

Assays:
Test in all cases: ELISA
[1] = target: T1, integrin αvβ5 (Homo sapiens, UniProt P06756)
T1 chain 1: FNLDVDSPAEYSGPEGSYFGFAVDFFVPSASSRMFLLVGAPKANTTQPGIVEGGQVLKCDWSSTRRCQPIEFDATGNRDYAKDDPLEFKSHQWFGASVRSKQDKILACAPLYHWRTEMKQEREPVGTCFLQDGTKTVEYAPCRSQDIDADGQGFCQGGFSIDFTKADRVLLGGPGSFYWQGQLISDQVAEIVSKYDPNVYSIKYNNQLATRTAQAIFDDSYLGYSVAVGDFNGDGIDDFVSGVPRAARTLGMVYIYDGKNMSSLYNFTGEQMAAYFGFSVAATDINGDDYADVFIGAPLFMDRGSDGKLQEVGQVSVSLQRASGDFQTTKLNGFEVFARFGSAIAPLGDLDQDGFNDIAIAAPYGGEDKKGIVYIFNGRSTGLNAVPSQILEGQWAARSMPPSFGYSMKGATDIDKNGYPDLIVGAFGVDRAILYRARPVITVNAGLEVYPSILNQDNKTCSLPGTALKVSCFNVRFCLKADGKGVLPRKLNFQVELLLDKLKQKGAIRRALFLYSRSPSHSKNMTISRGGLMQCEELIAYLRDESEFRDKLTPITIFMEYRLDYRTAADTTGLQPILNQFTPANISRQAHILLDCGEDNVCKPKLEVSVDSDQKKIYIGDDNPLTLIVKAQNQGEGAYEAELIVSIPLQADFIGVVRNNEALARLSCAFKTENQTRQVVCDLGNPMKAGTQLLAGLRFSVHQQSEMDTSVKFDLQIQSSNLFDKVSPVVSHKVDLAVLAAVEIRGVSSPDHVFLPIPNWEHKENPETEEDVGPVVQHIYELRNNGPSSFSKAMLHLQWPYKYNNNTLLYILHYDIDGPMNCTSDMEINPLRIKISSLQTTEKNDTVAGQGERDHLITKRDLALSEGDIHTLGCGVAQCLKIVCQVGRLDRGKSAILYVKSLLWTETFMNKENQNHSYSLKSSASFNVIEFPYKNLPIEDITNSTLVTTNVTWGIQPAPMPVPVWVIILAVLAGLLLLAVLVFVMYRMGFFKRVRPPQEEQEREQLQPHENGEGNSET
T1 chain 2: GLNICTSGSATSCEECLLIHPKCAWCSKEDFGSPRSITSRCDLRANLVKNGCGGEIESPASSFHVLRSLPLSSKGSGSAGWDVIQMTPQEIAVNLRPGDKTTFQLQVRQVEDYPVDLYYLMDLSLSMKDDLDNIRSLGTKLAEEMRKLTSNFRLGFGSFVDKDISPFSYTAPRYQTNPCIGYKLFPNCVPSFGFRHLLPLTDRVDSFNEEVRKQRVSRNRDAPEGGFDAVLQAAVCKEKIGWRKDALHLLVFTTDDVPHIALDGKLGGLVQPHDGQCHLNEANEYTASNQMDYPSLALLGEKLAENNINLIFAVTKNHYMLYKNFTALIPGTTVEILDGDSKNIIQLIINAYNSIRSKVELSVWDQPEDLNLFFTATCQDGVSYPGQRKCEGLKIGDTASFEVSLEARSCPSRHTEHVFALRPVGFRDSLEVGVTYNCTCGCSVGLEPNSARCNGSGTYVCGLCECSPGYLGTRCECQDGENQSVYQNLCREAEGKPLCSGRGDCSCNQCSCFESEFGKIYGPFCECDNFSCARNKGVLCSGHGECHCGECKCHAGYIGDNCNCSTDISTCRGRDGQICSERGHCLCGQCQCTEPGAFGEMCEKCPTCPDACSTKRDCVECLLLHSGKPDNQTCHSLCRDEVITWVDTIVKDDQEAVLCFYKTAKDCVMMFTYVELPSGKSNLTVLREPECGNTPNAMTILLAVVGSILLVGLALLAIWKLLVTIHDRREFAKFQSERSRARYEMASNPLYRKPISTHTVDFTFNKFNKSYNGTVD

[2] = target: T2, integrin αvβ3 (Homo sapiens, UniProt P06756)
T2 chain 1: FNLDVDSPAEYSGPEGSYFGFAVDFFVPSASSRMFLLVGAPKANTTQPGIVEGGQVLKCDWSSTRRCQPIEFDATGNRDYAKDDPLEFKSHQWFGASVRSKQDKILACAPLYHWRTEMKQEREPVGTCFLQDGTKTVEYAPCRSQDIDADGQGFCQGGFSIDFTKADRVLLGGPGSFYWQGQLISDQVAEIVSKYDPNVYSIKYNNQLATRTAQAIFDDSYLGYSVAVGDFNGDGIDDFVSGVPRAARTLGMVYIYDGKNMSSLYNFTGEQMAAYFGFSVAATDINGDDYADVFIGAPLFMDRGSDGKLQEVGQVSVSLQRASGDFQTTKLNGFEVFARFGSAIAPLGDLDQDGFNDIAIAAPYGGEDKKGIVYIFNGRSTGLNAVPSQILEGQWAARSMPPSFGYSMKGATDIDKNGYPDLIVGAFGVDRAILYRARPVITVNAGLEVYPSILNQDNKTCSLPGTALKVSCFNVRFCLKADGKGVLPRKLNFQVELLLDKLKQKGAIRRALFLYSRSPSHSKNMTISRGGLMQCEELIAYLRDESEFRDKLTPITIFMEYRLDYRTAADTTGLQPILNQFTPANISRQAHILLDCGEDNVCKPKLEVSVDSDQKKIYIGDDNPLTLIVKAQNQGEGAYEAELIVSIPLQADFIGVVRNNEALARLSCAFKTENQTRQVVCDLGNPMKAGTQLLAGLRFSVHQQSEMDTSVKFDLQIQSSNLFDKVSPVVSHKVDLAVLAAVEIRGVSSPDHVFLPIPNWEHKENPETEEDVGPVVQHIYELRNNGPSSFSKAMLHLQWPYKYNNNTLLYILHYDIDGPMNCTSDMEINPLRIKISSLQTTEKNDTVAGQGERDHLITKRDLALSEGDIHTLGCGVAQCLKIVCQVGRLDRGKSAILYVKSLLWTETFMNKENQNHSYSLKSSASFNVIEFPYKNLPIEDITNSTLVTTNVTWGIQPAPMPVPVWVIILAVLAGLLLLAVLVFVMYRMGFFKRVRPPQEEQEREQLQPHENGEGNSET
T2 chain 2: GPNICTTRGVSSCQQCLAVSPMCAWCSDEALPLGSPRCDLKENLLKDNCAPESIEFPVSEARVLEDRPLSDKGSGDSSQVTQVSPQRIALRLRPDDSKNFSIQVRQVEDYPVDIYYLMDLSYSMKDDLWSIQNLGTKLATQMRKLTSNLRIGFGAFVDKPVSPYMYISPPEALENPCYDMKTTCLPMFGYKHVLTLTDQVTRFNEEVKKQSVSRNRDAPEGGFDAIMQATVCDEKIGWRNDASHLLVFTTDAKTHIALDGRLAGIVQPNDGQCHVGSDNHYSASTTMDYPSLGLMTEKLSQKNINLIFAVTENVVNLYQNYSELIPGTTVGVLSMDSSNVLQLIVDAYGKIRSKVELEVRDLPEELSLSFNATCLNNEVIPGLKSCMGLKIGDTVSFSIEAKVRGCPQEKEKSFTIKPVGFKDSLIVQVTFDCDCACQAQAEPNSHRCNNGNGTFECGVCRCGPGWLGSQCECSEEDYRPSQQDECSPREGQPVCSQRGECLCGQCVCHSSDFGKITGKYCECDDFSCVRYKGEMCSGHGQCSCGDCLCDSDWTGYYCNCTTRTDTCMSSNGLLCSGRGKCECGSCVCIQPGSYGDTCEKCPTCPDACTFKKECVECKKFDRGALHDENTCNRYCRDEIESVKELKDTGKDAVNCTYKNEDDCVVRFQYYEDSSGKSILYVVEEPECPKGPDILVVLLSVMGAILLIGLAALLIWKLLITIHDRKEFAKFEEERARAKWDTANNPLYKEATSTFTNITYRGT

[3] = target: DR5 (Homo sapiens, UniProt O14763)

Binder	Kd [1] [nM]	Kd [2] [nM]	Kd [3] [nM]
DR5-B-iRGD 114-281 (protein) VRERGPQRVAAHITGTRGRSNTLSSPNSKNEKALGRKINSWESSRSGHSFLSNLHLRNGELVIHEKGFYYIYSQTNFKFREEIKENTKNDKQMVQYIYKYTSYPDPILLMKSARNSCWSKDAEYGLYSIYQGGIFELKENDRIFVSVTNERLLDMHHEASFFGAFLVG	96.5	1.89	1.66
DR5-B 114-281 (protein) VRERGPQRVAAHITGTRGRSNTLSSPNSKNEKALGRKINSWESSRSGHSFLSNLHLRNGELVIHEKGFYYIYSQTNFKFREEIKENTKNDKQMVQYIYKYTSYPDPILLMKSARNSCWSKDAEYGLYSIYQGGIFELKENDRIFVSVTNERLLDMHHEASFFGAFLVG			1.46
